Measurements from PMC6702080 (2019).

Target: T1, BolA2 (Homo sapiens, UniProt Q9H3K6)
T1 chain: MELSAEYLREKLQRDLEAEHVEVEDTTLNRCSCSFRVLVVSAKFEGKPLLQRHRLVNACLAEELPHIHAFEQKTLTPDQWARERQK
Assay: pull-down

- Kd: 900 nM
B1: PCBP1 KH3 (protein)
chain: ASTQTTHELTIPNNLIGCIIGRQGANINEIRQMSGAQIKIANPVEGSSGRQVTITGSAASISLAQYLINAR
modifications: Fe(II)+GSH
